Biological target: human TNFα (human, UniProt P01375 77-233)
Assay: cell-based or functional assay

human TNFα, sequence (P01375 77-233 limits assumed): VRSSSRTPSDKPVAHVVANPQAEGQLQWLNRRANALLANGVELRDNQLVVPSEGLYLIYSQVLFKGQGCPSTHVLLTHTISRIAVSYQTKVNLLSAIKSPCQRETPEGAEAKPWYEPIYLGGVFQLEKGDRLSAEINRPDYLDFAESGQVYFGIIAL

Binder	Ratio of Activities compared to Chimeric Antibody (fold difference, WEHI-164 protection assay at 25 ng/ml) [fold]
Composite Human Antibody of heavy chain SEQ. ID. No. 5 and light chain SEQ. ID. No. 9 (antibody, human IgG1, V domains shown) VH: EVQLVESGGGLVQPGGSLKLSCVASGFIFSNHWMNWVRQAPGKGLEWVAEIRSKSINSATHYAESVKGRFTISRDDSKSIVYLQMNDLKTEDTGVYYCSRNYYGSTYDYWGQGTTVTVSS VL: DILLTQSPATLSLSPGERATLSCRASQFVGSSIHWYQQKTNQSPKLLIKYASESMSGIPSRFSGSGSGTDFTLTINSLESEDAADYYCQQSHSWPFTFGQGTRLEIK	1.32
Composite Human Antibody 7/9 (antibody, human IgG1, V domains shown) VH: EVQLVESGGGLVQPGGSLKLSCAASGFIFSNHWMNWVRQAPGKGLEWVAEIRSKSINSATHYAESVKGRFTISRDDSKSIVYLQMNSLKTEDTGVYYCSRNYYGSTYDYWGQGTTVTVSS VL: DILLTQSPATLSLSPGERATLSCRASQFVGSSIHWYQQKTNQSPKLLIKYASESMSGIPSRFSGSGSGTDFTLTINSLESEDAADYYCQQSHSWPFTFGQGTRLEIK	0.95
Composite Human Antibody of heavy chain SEQ. ID. No. 3 and light chain SEQ. ID. No. 10 (antibody, human IgG1, V domains shown) VH: EVQLVESGGGLVQPGGSLKLSCVASGFIFSNHWMNWVRQAPGKGLEWVAEIRSKSINSATHYAESVKGRFTISRDDSKSIVYLQMTDLRTEDTGVYYCSRNYYGSTYDYWGQGTTVTVSS VL: DILLTQSPATLSLSPGERATLSCRASQFVGSSIHWYQQKTNQSPKLLIKYASESMSGIPSRFSGSGSGTDFTLTINSLEAEDAADYYCQQSHSWPFTFGQGTRLEIK	2.51
Composite Human Antibody of heavy chain SEQ. ID. No. 7 and light chain SEQ. ID. No. 11 (antibody, human IgG1, V domains shown) VH: EVQLVESGGGLVQPGGSLKLSCAASGFIFSNHWMNWVRQAPGKGLEWVAEIRSKSINSATHYAESVKGRFTISRDDSKSIVYLQMNSLKTEDTGVYYCSRNYYGSTYDYWGQGTTVTVSS VL: DILLTQSPATLSLSPGERATLSCRASQFVGSSIHWYQQKTDQSPKLLIKYASESMSGIPSRFSGSGSGTDFTLTINSLEAEDAADYYCQQSHSWPFTFGQGTRLEIK	106
Composite Human Antibody of heavy chain SEQ. ID. No. 6 and light chain SEQ. ID. No. 11 (antibody, human IgG1, V domains shown) VH: EVQLVESGGGLVQPGGSLKLSCVASGFIFSNHWMNWVRQAPGKGLEWVAEIRSKSINSATHYAESVKGRFTISRDDSKSIVYLQMNSLKTEDTGVYYCSRNYYGSTYDYWGQGTTVTVSS VL: DILLTQSPATLSLSPGERATLSCRASQFVGSSIHWYQQKTDQSPKLLIKYASESMSGIPSRFSGSGSGTDFTLTINSLEAEDAADYYCQQSHSWPFTFGQGTRLEIK	134
Composite Human Antibody 5/10 (antibody, human IgG1, V domains shown) VH: EVQLVESGGGLVQPGGSLKLSCVASGFIFSNHWMNWVRQAPGKGLEWVAEIRSKSINSATHYAESVKGRFTISRDDSKSIVYLQMNDLKTEDTGVYYCSRNYYGSTYDYWGQGTTVTVSS VL: DILLTQSPATLSLSPGERATLSCRASQFVGSSIHWYQQKTNQSPKLLIKYASESMSGIPSRFSGSGSGTDFTLTINSLEAEDAADYYCQQSHSWPFTFGQGTRLEIK	1.17
Composite Human Antibody 7/4 (antibody, human IgG1, V domains shown) VH: EVQLVESGGGLVQPGGSLKLSCAASGFIFSNHWMNWVRQAPGKGLEWVAEIRSKSINSATHYAESVKGRFTISRDDSKSIVYLQMNSLKTEDTGVYYCSRNYYGSTYDYWGQGTTVTVSS VL: DILLTQSPAILSLSPGERATLSCRASQFVGSSIHWYQQKTNQSPKLLIKYASESMSGIPSRFSGSGSGTDFTLTINSLESEDAADYYCQQSHSWPFTFGQGTNLEIK	1.05
antibody of heavy chain SEQ. ID. No. 1 and light chain SEQ. ID. No. 11 (antibody, human IgG1, V domains shown) VH: EVKLEESGGGLVQPGGSMKLSCVASGFIFSNHWMNWVRQSPEKGLEWVAEIRSKSINSATHYAESVKGRFTISRDDSKSAVYLQMTDLRTEDTGVYYCSRNYYGSTYDYWGQGTTLTVSS VL: DILLTQSPATLSLSPGERATLSCRASQFVGSSIHWYQQKTDQSPKLLIKYASESMSGIPSRFSGSGSGTDFTLTINSLEAEDAADYYCQQSHSWPFTFGQGTRLEIK	16.9

The next lines start with the values.

Ratio of Activities compared to Chimeric Antibody (fold difference, WEHI-164 protection assay at 25 ng/ml) [fold]	Binder
1.51	antibody of heavy chain SEQ. ID. No. 1 and light chain SEQ. ID. No. 4 (antibody, human IgG1, V domains shown) VH: EVKLEESGGGLVQPGGSMKLSCVASGFIFSNHWMNWVRQSPEKGLEWVAEIRSKSINSATHYAESVKGRFTISRDDSKSAVYLQMTDLRTEDTGVYYCSRNYYGSTYDYWGQGTTLTVSS VL: DILLTQSPAILSLSPGERATLSCRASQFVGSSIHWYQQKTNQSPKLLIKYASESMSGIPSRFSGSGSGTDFTLTINSLESEDAADYYCQQSHSWPFTFGQGTNLEIK
0.98	Composite Human Antibody 7/10 (i.e. containing SEQ. ID. No.s 7 and 10) (antibody, human IgG1, V domains shown) VH: EVQLVESGGGLVQPGGSLKLSCAASGFIFSNHWMNWVRQAPGKGLEWVAEIRSKSINSATHYAESVKGRFTISRDDSKSIVYLQMNSLKTEDTGVYYCSRNYYGSTYDYWGQGTTVTVSS VL: DILLTQSPATLSLSPGERATLSCRASQFVGSSIHWYQQKTNQSPKLLIKYASESMSGIPSRFSGSGSGTDFTLTINSLEAEDAADYYCQQSHSWPFTFGQGTRLEIK
15.2	Composite Human Antibody of heavy chain SEQ. ID. No. 3 and light chain SEQ. ID. No. 11 (antibody, human IgG1, V domains shown) VH: EVQLVESGGGLVQPGGSLKLSCVASGFIFSNHWMNWVRQAPGKGLEWVAEIRSKSINSATHYAESVKGRFTISRDDSKSIVYLQMTDLRTEDTGVYYCSRNYYGSTYDYWGQGTTVTVSS VL: DILLTQSPATLSLSPGERATLSCRASQFVGSSIHWYQQKTDQSPKLLIKYASESMSGIPSRFSGSGSGTDFTLTINSLEAEDAADYYCQQSHSWPFTFGQGTRLEIK
1.38	Composite Human Antibody of heavy chain SEQ. ID. No. 6 and light chain SEQ. ID. No. 4 (antibody, human IgG1, V domains shown) VH: EVQLVESGGGLVQPGGSLKLSCVASGFIFSNHWMNWVRQAPGKGLEWVAEIRSKSINSATHYAESVKGRFTISRDDSKSIVYLQMNSLKTEDTGVYYCSRNYYGSTYDYWGQGTTVTVSS VL: DILLTQSPAILSLSPGERATLSCRASQFVGSSIHWYQQKTNQSPKLLIKYASESMSGIPSRFSGSGSGTDFTLTINSLESEDAADYYCQQSHSWPFTFGQGTNLEIK
2.28	primary Composite Human Antibody (heavy chain SEQ. ID. No. 3 and light chain SEQ. ID. No. 4) (antibody, human IgG1, V domains shown) VH: EVQLVESGGGLVQPGGSLKLSCVASGFIFSNHWMNWVRQAPGKGLEWVAEIRSKSINSATHYAESVKGRFTISRDDSKSIVYLQMTDLRTEDTGVYYCSRNYYGSTYDYWGQGTTVTVSS VL: DILLTQSPAILSLSPGERATLSCRASQFVGSSIHWYQQKTNQSPKLLIKYASESMSGIPSRFSGSGSGTDFTLTINSLESEDAADYYCQQSHSWPFTFGQGTNLEIK
1.77	Composite Human Antibody of heavy chain SEQ. ID. No. 6 and light chain SEQ. ID. No. 9 (antibody, human IgG1, V domains shown) VH: EVQLVESGGGLVQPGGSLKLSCVASGFIFSNHWMNWVRQAPGKGLEWVAEIRSKSINSATHYAESVKGRFTISRDDSKSIVYLQMNSLKTEDTGVYYCSRNYYGSTYDYWGQGTTVTVSS VL: DILLTQSPATLSLSPGERATLSCRASQFVGSSIHWYQQKTNQSPKLLIKYASESMSGIPSRFSGSGSGTDFTLTINSLESEDAADYYCQQSHSWPFTFGQGTRLEIK
1.31	antibody of heavy chain SEQ. ID. No. 1 and light chain SEQ. ID. No. 10 (antibody, human IgG1, V domains shown) VH: EVKLEESGGGLVQPGGSMKLSCVASGFIFSNHWMNWVRQSPEKGLEWVAEIRSKSINSATHYAESVKGRFTISRDDSKSAVYLQMTDLRTEDTGVYYCSRNYYGSTYDYWGQGTTLTVSS VL: DILLTQSPATLSLSPGERATLSCRASQFVGSSIHWYQQKTNQSPKLLIKYASESMSGIPSRFSGSGSGTDFTLTINSLEAEDAADYYCQQSHSWPFTFGQGTRLEIK
1.28	antibody of heavy chain SEQ. ID. No. 1 and light chain SEQ. ID. No. 9 (antibody, human IgG1, V domains shown) VH: EVKLEESGGGLVQPGGSMKLSCVASGFIFSNHWMNWVRQSPEKGLEWVAEIRSKSINSATHYAESVKGRFTISRDDSKSAVYLQMTDLRTEDTGVYYCSRNYYGSTYDYWGQGTTLTVSS VL: DILLTQSPATLSLSPGERATLSCRASQFVGSSIHWYQQKTNQSPKLLIKYASESMSGIPSRFSGSGSGTDFTLTINSLESEDAADYYCQQSHSWPFTFGQGTRLEIK
196	Composite Human Antibody of heavy chain SEQ. ID. No. 5 and light chain SEQ. ID. No. 11 (antibody, human IgG1, V domains shown) VH: EVQLVESGGGLVQPGGSLKLSCVASGFIFSNHWMNWVRQAPGKGLEWVAEIRSKSINSATHYAESVKGRFTISRDDSKSIVYLQMNDLKTEDTGVYYCSRNYYGSTYDYWGQGTTVTVSS VL: DILLTQSPATLSLSPGERATLSCRASQFVGSSIHWYQQKTDQSPKLLIKYASESMSGIPSRFSGSGSGTDFTLTINSLEAEDAADYYCQQSHSWPFTFGQGTRLEIK
2.14	Composite Human Antibody of heavy chain SEQ. ID. No. 3 and light chain SEQ. ID. No. 9 (antibody, human IgG1, V domains shown) VH: EVQLVESGGGLVQPGGSLKLSCVASGFIFSNHWMNWVRQAPGKGLEWVAEIRSKSINSATHYAESVKGRFTISRDDSKSIVYLQMTDLRTEDTGVYYCSRNYYGSTYDYWGQGTTVTVSS VL: DILLTQSPATLSLSPGERATLSCRASQFVGSSIHWYQQKTNQSPKLLIKYASESMSGIPSRFSGSGSGTDFTLTINSLESEDAADYYCQQSHSWPFTFGQGTRLEIK
1.63	Composite Human Antibody of heavy chain SEQ. ID. No. 6 and light chain SEQ. ID. No. 10 (antibody, human IgG1, V domains shown) VH: EVQLVESGGGLVQPGGSLKLSCVASGFIFSNHWMNWVRQAPGKGLEWVAEIRSKSINSATHYAESVKGRFTISRDDSKSIVYLQMNSLKTEDTGVYYCSRNYYGSTYDYWGQGTTVTVSS VL: DILLTQSPATLSLSPGERATLSCRASQFVGSSIHWYQQKTNQSPKLLIKYASESMSGIPSRFSGSGSGTDFTLTINSLEAEDAADYYCQQSHSWPFTFGQGTRLEIK
1.28	Composite Human Antibody of heavy chain SEQ. ID. No. 5 and light chain SEQ. ID. No. 4 (antibody, human IgG1, V domains shown) VH: EVQLVESGGGLVQPGGSLKLSCVASGFIFSNHWMNWVRQAPGKGLEWVAEIRSKSINSATHYAESVKGRFTISRDDSKSIVYLQMNDLKTEDTGVYYCSRNYYGSTYDYWGQGTTVTVSS VL: DILLTQSPAILSLSPGERATLSCRASQFVGSSIHWYQQKTNQSPKLLIKYASESMSGIPSRFSGSGSGTDFTLTINSLESEDAADYYCQQSHSWPFTFGQGTNLEIK
